Results: patent publication US12134788B2, “Engineered prephenate dehydrogenases and arogenate dehydrogenases and methods of using the same” (Wisconsin Alumni Research Foundation, priority 2017, dated 2024)
Values belong to the molecule of their own block, whether it stands above or below them.

Experiments:
[1] = substrate: N[C@@H](CC1(C(=O)O)C=CC(O)C=C1)C(=O)O; assay: ADH and PDH assay: steady-state kinetics and Tyr inhibition, GmncADH wild type; assay type: biochemical, Glycine max (soybean); conditions: other: 0.5 mM NADP^+, pH 7.6, 37° C.
Description: (§1) Kinetic parameters of purified recombinant proteins were determined from assays conducted at varying arogenate (19.5 μM-5 mM) and prephenate concentration (23.4 μM-6 mM). Standard assay conditions were 25 mM HEPES pH 7.6, 50 mM KCl and 10% (v/v) ethylene glycol, and 0.5 mM NADP^+ with varied substrate, concentrations. Reactions were initiated by addition of enzyme and incubated at 37° C. monitored every 10-15 seconds at […] using a microplate reader (Tecan Genios). Kinetic parameters were determined by fitting initial velocity data to the Michaelis-Menten equation using the Origin software (OriginLab).
(§2) Arogenate was prepared by enzymatic conversion of prephenate (Sigma-Aldrich) as previously reported^56. For Tyr inhibition assays, Tyr was dissolved in a slightly basic solution (0.025 N NaOH) due to solubility issues, thus the concentration of lysis buffer was increased to 500 mM HEPES final concentration to buffer against the changes by addition of Tyr in the reaction. Reactions containing varying amounts of Tyr (10 μM-8 mM) with 0.5 mM NADP^+ and either 1 mM arogenate or 0.8 mM prephenate were monitored as above.

[2] = PDH assay of microbial TyrA enzymes (Example 2); assay type: biochemical
Description: ADH and PDH assays were performed using purified recombinant enzymes for SsTyrA and MhTyrA Wt and Q227E mutant, while the E. coli cell lysate was used for OiTyrA as expression and purification of this enzyme was unsuccessful. Reactions contained 0.8 mM substrate (arogenate or prephenate) and 0.8 mM cofactor (NADP+ or NAD+) together with reaction buffer (25 mM HEPES pH 7.6, 50 mM KCl, 10% (v/v) ethylene glycol). For OiTyrA assays containing cell lysates, reactions were incubated for 45 minutes and analyzed using HPLC as previously reported (Schenck et al., 2015). For pure enzymes, reactions were monitored every 10-15 seconds for reduced cofactor at A340 nm using a microplate reader (Tecan Genios). Kinetic parameters of purified recombinant enzymes were determined from assays containing varying concentrations of arogenate (39.1 μM-5 mM) or prephenate (39.1 μM-5 mM) substrate and monitored 10-15 seconds for reduced cofactor at A340 nm using a microplate reader (Tecan Genios). Kinetic parameters were determined by fitting initial velocity data to the Michaelis-Menten equation using Origin software (OriginLab) from technical replicate assays (n=3). Arogenate substrate was prepared by enzymatic conversion of prephenate (Sigma-Aldrich). All enzyme assays were conducted at a reaction time and protein concentration that were in the linear range and proportional to reaction velocity.

[3] = substrate: O=C(O)C(=O)CC1(C(=O)O)C=CC(O)C=C1; assay: ADH and PDH assay: steady-state kinetics and Tyr inhibition, GmPDH1 wild type; assay type: biochemical, Glycine max (soybean); conditions: other: 0.5 mM NADP^+, pH 7.6, 37° C.
Description: as §1
as §2, with “Reactions containing varying amounts of Tyr (10 μM-8 mM) with 0.5 mM NADP^+ and either 1 mM arogenate or 0.8 mM prephenate were monitored as above.” left out

[4] = substrate: N[C@@H](CC1(C(=O)O)C=CC(O)C=C1)C(=O)O; assay: as above; assay type: biochemical, Glycine max (soybean); conditions: other: 0.5 mM NADP^+, pH 7.6, 37° C.
Description: as §1
as §2, with “Reactions containing varying amounts of Tyr (10 μM-8 mM) with 0.5 mM NADP^+ and either 1 mM arogenate or 0.8 mM prephenate were monitored as above.” left out

[5] = PDH assay: steady-state kinetics of purified recombinant plant enzymes with prephenate; assay type: biochemical; conditions: prephenate versus arogenate, NADP+ cofactor
Source text: As used herein, a polypeptide may “have greater arogenate dehydrogenase activity than prephenate dehydrogenase activity” or “have greater prephenate dehydrogenase activity than arogenate dehydrogenase activity” when the steady-state kinetic parameters (kcat/Km (mM^−1s^−1)) for arogenate dehydrogenase activity are greater than the steady-state parameters (kcat/Km (mM^−1s^−1)) for prephenate dehydrogenase activity or when the steady-state kinetic parameters (kcat/Km (mM^−1s^−1)) for prephenate dehydrogenase activity are greater than the steady-state parameters (kcat/Km (mM^−1s^−1)) for arogenate dehydrogenase activity. Steady-state kinetic parameters may be measured using techniques similar to those described by the inventors in the Examples. Briefly, kinetic parameters of purified polypeptides can be determined from assays conducted at varying arogenate and prephenate concentrations. Standard assay conditions include 25 mM HEPES pH 7.6, 50 mM KCl and 10% (v/v) ethylene glycol, and 0.5 mM NADP^+ with varied substrate, concentrations. Reactions can be initiated by the addition of the polypeptide and incubated at 37° C. monitored every 10-15 seconds at A340nm using a microplate reader. Kinetic parameters may be determined by fitting initial velocity data to the Michaelis-Menten equation using the Origin software.
as §1

[6] = substrate: O=C(O)C(=O)CC1(C(=O)O)C=CC(O)C=C1; assay: ADH and PDH assay: steady-state kinetics and Tyr inhibition, MtncADH wild type; assay type: biochemical, Medicago truncatula; conditions: other: 0.5 mM NADP^+, pH 7.6, 37° C.
Description: as §1, §2

[7] = substrate: N[C@@H](CC1(C(=O)O)C=CC(O)C=C1)C(=O)O; assay: as above; assay type: biochemical, Medicago truncatula; conditions: other: 0.5 mM NADP^+, pH 7.6, 37° C.
Description: as §1, §2

[8] = substrate: O=C(O)C(=O)CC1(C(=O)O)C=CC(O)C=C1; assay: ADH and PDH assay: steady-state kinetics and Tyr inhibition, MtPDH wild type; assay type: biochemical, Medicago truncatula; conditions: other: 0.5 mM NADP^+, pH 7.6, 37° C.
Description: as §1
as §2, with “Reactions containing varying amounts of Tyr (10 μM-8 mM) with 0.5 mM NADP^+ and either 1 mM arogenate or 0.8 mM prephenate were monitored as above.” left out

[9] = substrate: N[C@@H](CC1(C(=O)O)C=CC(O)C=C1)C(=O)O; assay: as above; assay type: biochemical, Medicago truncatula; conditions: other: 0.5 mM NADP^+, pH 7.6, 37° C.
Description: as §1
as §2, with “Reactions containing varying amounts of Tyr (10 μM-8 mM) with 0.5 mM NADP^+ and either 1 mM arogenate or 0.8 mM prephenate were monitored as above.” left out

[10] = substrate: N[C@@H](CC1(C(=O)O)C=CC(O)C=C1)C(=O)O; assay: ADH and PDH assay: steady-state kinetics and Tyr inhibition, SolyncADH wild type; assay type: biochemical, Solanum lycopersicum (tomato); conditions: other: 0.5 mM NADP^+, pH 7.6, 37° C.
Description: as §1, §2

B1: GmncADH (Gm14g05990), soybean (Glycine max) noncanonical arogenate dehydrogenase, wild type (Glycine max) (protein)
chain: MSTWSLKIGVVGFGSFGQFLAKTMIKQGHTLRATSRTDYSLLCLPMGIQFFRDVAAFLEADNDVILVCTSILSLSEVLSSMPLTCLKRSTLFVDVLSVKEHPRNLLIKVLPEESDILCTHPMFGPDSGKDGWQDLTFVYDKVRIRDEAICSSFLHIFASEGCRMLQMSCEEHDKIAAKSQFITHTIGRTLAEMDIKSTPIDTKGFHSLVQLKDTTIRDSFDLYSGLFLHNRFAVQELENLEHALHKVKEMLVQRKSEELGLEKTEC
notes: wild type
Km [1]: 410 ± 30 µM
kcat [1]: 27.7 ± 1.1 s⁻¹
kcat/Km [1]: 67600 M⁻¹ s⁻¹

ADH and PDH activity (in words) ([2]; 0.8 mM arogenate or prephenate, 0.8 mM cofactor): strong PDH and very weak ADH activity
B2: Wild-type: wild-type archaeon TyrA from Methanosaeta harundinacea, recombinant (protein)
chain: MTTMANSGTKNRMLIVGGTGGTGSWFAKYFKEHGFLVSIWGPSGKVEVAERLGVKFARDLMAEVAKSDVVLLSVPIKETAKVVEEVAPRMRPGSLLMDVTSLKAEPMKAMLRWAPDGVEVLGTHPMFGPTIPTIRGQTVILVPAAGRCDEWLLPMEEIFQEDGARVEVLGAEEHDRIMAVVQALTHFAYISIGSTLRSLDFDIAHSRRLMSPVYEIMIDFVGRILAQSPELYSSIQENPEAKRVREAYIEECQRLSKLADTGNSEGFMEAMRSAADHFDEREVALARSDRLISLWIDHREGKRRGLEPRW
modifications: M. harundinacea; misc_feature (1)..(310): M. harundinacea TyrA MhTyrA
notes: wild-type archaeon TyrA from Methanosaeta harundinacea, recombinant
cofactor preference (in words) ([2]; PDH activity, NADP+ versus NAD+, 0.8 mM): strongly preferred NADP+ over NAD+ cofactor

B3: GmPDH1 (Gm18g02650), soybean (Glycine max) prephenate dehydrogenase, wild type (Glycine max) (protein)
chain: MSTSSSSQSLKIGIVGFGNFGQFLAKTMIKQGHTLTATSRSDYSELCLQMGIHFFRDVSAFLTADIDVIVLCTSILSLSEVVGSMPLTSLKRPTLFVDVLSVKEHPRELLLRELPEDSDILCTHPMFGPQTAKNGWTDHTFMYDKVRIRDEVICSNFIQIFATEGCKMVQMSCEEHDRAAAKSQFITHTIGRTLGEMDIQSTPIDTKGFETLVKLKETMMRNSFDLYSGLFVYNRFARQELENLEHALHKVKETLMIQRTNGEQGHKRTES
notes: homodimer
Km [3]: 90 ± 10 µM
kcat [3]: 30.4 ± 0.7 s⁻¹
kcat/Km [3]: 338000 M⁻¹ s⁻¹
Km [4]: 2590 ± 90 µM
kcat [4]: 6.3 ± 0.7 s⁻¹
kcat/Km [4]: 2430 M⁻¹ s⁻¹

substrate specificity: PDH versus ADH activity (in words) [5]: gained ADH activity
B4: GmPDH1 N222D: site-directed mutant of soybean PDH, Asn222 to Asp (protein)
chain: MSTSSSSQSLKIGIVGFGNFGQFLAKTMIKQGHTLTATSRSDYSELCLQMGIHFFRDVSAFLTADIDVIVLCTSILSLSEVVGSMPLTSLKRPTLFVDVLSVKEHPRELLLRELPEDSDILCTHPMFGPQTAKNGWTDHTFMYDKVRIRDEVICSNFIQIFATEGCKMVQMSCEEHDRAAAKSQFITHTIGRTLGEMDIQSTPIDTKGFETLVKLKETMMRDSFDLYSGLFVYNRFARQELENLEHALHKVKETLMIQRTNGEQGHKRTES
modifications: Synthetic: GmPDH1 N222D
notes: site-directed mutant of soybean PDH, Asn222 to Asp

B5: MtncADH (Mt5g083530), Medicago truncatula noncanonical arogenate dehydrogenase, wild type (Medicago truncatula) (protein)
chain: MSNSPSLKIGIVGFGSFGQFLAKTMIKQGHTLTATSRTDYSHTCLQLGIQFFRDVGTFIEANNDVILICTSIMSFTKVLSSMPLACLKKPTTLFVDVLSVKEHPREVLLRVLPEESDILCTHPMFGPESGKNGWKDLNFMYDKVRIHDEATCSNFLHIFASEGCKMLQMSCEEHDKIAAKSQFITHTIGRTLAEMDIESTPIDTKGFQTLTQLKNTTMRDSFDLYSGLFVHNRFAKQELENLQRALDRVKEMLVQRMREELGPEKD
notes: wild type
Km [6]: 6690 ± 270 µM
kcat [6]: 0.3 ± 0.1 s⁻¹
kcat/Km [6]: 45 M⁻¹ s⁻¹
Km [7]: 140 ± 20 µM
kcat [7]: 39 ± 7.6 s⁻¹
kcat/Km [7]: 279000 M⁻¹ s⁻¹

B6: MtPDH (MtPDH1; Mt3g071980), Medicago truncatula prephenate dehydrogenase, wild type (Medicago truncatula) (protein)
chain: MSSSSKSLKIGIVGFGTFGQFLANTMIKQGHTLTATSRTDYSQLCDQMGIHFFRDITAFLDADMDVILLCTSISSLSEVVGSMPLACLKRPTLFVDVLSVKEHPKNLLLKVLPEESDILCTHPMFGPVSGKNGWQNLTFMFDKVRIKDEVTCSKFLQIFASEGCKMVEMSCEEHDKAAAKSQFITHTIGRTLAEMDIKSTPIDTKGFQTLVELKKPVMGCSFDLYSGLFVYNRFARQELENLEHALHKVKEMLVQRIDEGQNPERTES
Km [8]: 50 ± 10 µM
kcat [8]: 18.5 ± 3 s⁻¹
kcat/Km [8]: 370000 M⁻¹ s⁻¹
Km [9]: 940 ± 40 µM
kcat [9]: 16.9 ± 1.1 s⁻¹
kcat/Km [9]: 18000 M⁻¹ s⁻¹

B7: MtPDH C220D: site-directed mutant of M. truncatula PDH, Cys220 to Asp (protein)
chain: MSSSSKSLKIGIVGFGTFGQFLANTMIKQGHTLTATSRTDYSQLCDQMGIHFFRDITAFLDADMDVILLCTSISSLSEVVGSMPLACLKRPTLFVDVLSVKEHPKNLLLKVLPEESDILCTHPMFGPVSGKNGWQNLTFMFDKVRIKDEVTCSKFLQIFASEGCKMVEMSCEEHDKAAAKSQFITHTIGRTLAEMDIKSTPIDTKGFQTLVELKKPVMGDSFDLYSGLFVYNRFARQELENLEHALHKVKEMLVQRIDEGQNPERTES
modifications: Synthetic: MtPDH C220D
notes: site-directed mutant of M. truncatula PDH, Cys220 to Asp
substrate specificity: PDH versus ADH activity (in words) [5]: reduced PDH activity and enhanced ADH activity

B8: SolyncADH (Slycopersicum06g050630), tomato noncanonical arogenate dehydrogenase, wild type (Solanum lycopersicum) (protein)
chain: MSSSSSCQPKTLRIGIIGFGPFAQFLAKTMMKQGHCIHVTSRSDYSELCTDLGILFFRDMGAFLESDNEVIMISTSILSLSQVVESIPFNCLKRPTLFVDVLSVKEHPKDVLLRMMPRECDLLCTHPMFGPESGKDGWEDLTFMYDMVRIRDQPLCSSFLHIFSSEGCKMLEMTCEKHDRLAAQSQFLTHTIGRILSEMEVEPTPIDTKGFQKLVQVKESSVKDSFDLFSGLFIHNRFARQQMKNLEVALEKTKEKLQERSKELQDPIISKF
notes: wild type
Km [10]: 450 ± 50 µM
kcat [10]: 15.9 ± 2.1 s⁻¹
kcat/Km [10]: 35300 M⁻¹ s⁻¹

substrate specificity: PDH versus ADH activity (in words) [5]: exhibited ADH but not PDH activity
B9: SolyncADH: noncanonical arogenate dehydrogenase from tomato, wild-type (protein, listed as Solanum lycopersicum)
chain: MSSSSSCQPKTLRIGIIGFGPFAQFLAKTMMKQGHCIHVTSRSDYSELCTDLGILFFRDMGAFLESDNEVIMISTSILSLSQVVESIPFNCLKRPTLFVDVLSVKEHPKDVLLRMMPRECDLLCTHPMFGPESGKDGWEDLTFMYDMVRIRDQPLCSSFLHIFSSEGCKMLEMTCEKHDRLAAQSQFLTHTIGRILSEMEVEPTPIDTKGFQKLVQVKESSVKDSFDLFSGLFIHNRFARQQMKNLEVALEKTKEKLQERSKELQDPIISKF
modifications: misc_feature (1)..(272): SolyncADH WT
notes: noncanonical arogenate dehydrogenase from tomato, wild-type
